Consider one substance from PMC10836720.

In this assay the target is A. baumannii 118362 Family 2A encapsulin shell protein (J517_0527) (Acinetobacter baumannii 118362). As to the kind of experiment: cryo-EM structure.

For “A. baumannii 118362 Family 2A encapsulin shell protein (J517_0527) (natural protein)”, the stoichiometry N amounted to 60 subunits.

One may read the stoichiometry N as a count of units in the complex or per binding partner.
